Laboratory results taken from US20110206658A1 (published 2011).

T1: human CD79b (TAHO5) (human, UniProt P40259 29-229)
T1 sequence: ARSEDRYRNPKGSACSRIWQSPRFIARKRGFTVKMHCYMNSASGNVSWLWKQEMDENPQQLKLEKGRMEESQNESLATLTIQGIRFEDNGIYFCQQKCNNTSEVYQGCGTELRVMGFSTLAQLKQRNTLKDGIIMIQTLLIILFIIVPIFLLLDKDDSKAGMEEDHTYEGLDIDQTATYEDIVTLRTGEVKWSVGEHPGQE

T2: cynomolgus CD79b (TAHO40) (cynomolgus monkey)
T2 chain: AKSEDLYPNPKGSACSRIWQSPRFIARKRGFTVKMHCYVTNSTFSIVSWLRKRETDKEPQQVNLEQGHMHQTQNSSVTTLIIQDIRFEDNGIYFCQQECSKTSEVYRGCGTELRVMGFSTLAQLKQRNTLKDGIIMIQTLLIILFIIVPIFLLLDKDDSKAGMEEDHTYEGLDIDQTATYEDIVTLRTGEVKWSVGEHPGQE

B1: anti-cyno CD79b (10D10)-SMCC-DM1 (antibody, V domains shown)
VH: EVQLQESGPGLVKPSQSLSLTCTVTGYSITSDYAWNWIRQFPGNKLEWMGNIWYSGSTTYNPSLKSRISITRDTSKNQFFLQLNSVTSEDTATYYCSRMDFWGQGTTLTVSS
VL: DIVLTQSPPSLAVSLGQRATISCRASESVDSYGKTFMHWHQQKPGQPPKLLIYRVSNLESGIPARFSGSGSRTDFTLTINPVEADDVATYYCQQSNEDPFTFGGGTKLEIKR
modifications: DM1 linked through SMCC to the epsilon-amino group of lysines; drug to antibody ratio typically 3 to 4
B2: anti-cyno CD79b (10D10)-MC-MMAF (antibody, V domains shown)
VH: B1 VH
VL: B1 VL
modifications: MMAF linked through the cysteine by the maleimidocaproyl (MC) linker; sites and load not stated

What was measured:
[1] = target: T1, human CD79b (TAHO5); test: cell-based or functional assay
[2] = target: T2, cynomolgus CD79b (TAHO40); test: cell-based or functional assay

Binder	IC50 of tumor cell killing (CellTiter-Glo), non-transfected BJAB cells [1]	IC50 of tumor cell killing (CellTiter-Glo), BJAB-cyno CD79b cells [2]
B1	10 nM	0.33 nM
B2	694 nM	0.07 nM
